This note sets out measurements from publication PMC4888461 (Biochemical Journal, 2016).

B1: BMP-2 (bone morphogenetic protein 2), wild type (ligand, UniProt P12643 283-396, looked up)
chain: QAKHKQRKRLKSSCKRHPLYVDFSDVGWNDWIVAPPGYHAFYCHGECPFPLADHLNSTNHAIVQTLVNSVNSKIPKACCVPTELSAISMLYLDENEKVVLKNYQDMVVEGCGCR
B2: His-tagged fl-Gremlin-1 (natural protein, human, UniProt O60565 25-184, looked up)
chain: KKKGSQGAIPPPDKAQHNDSEQTQSPQQPGSRNRGRGQGRGTAMPGEEVLESSQEALHVTERKYLKRDWCKTQPLKQTIHEEGCNSRTIINRFCYGQCNSFYIPRHIRKEEGSFQSCSFCKPKKFTTMMVTLNCPELQPPTKKKRVTRVKQCRCISIDLD
B3: His-tagged ΔN-Gremlin-1 (domain or fragment, human, UniProt O60565 72-184, looked up)
chain: EVLESSQEALHVTERKYLKRDWCKTQPLKQTIHEEGCNSRTIINRFCYGQCNSFYIPRHIRKEEGSFQSCSFCKPKKFTTMMVTLNCPELQPPTKKKRVTRVKQCRCISIDLD
B4: untagged ΔN-Gremlin-1 (domain or fragment, human, UniProt O60565 72-184, looked up)
chain: B3 chain

The target in series [1] is His-tagged fl-Gremlin-1 (human) (UniProt O60565). The series is described as follows: BLI. On the technique in general: Biolayer interferometry detects binding as a change in optical thickness at a sensor tip.
The target in series [2] is His-tagged ΔN-Gremlin-1 (human) (UniProt O60565). The series is described as follows: BLI.
Series [3] shares this target. The series is described as follows: BLI. This is another data set of the same source.
In series [4] the target is His-tagged fl-Gremlin-1 (human) (UniProt O60565). Kind of series: BLI. The source holds these as a separate data set.
The target in series [5] is B2. The series is described as follows: BLI.
The target of series [6] is B2. Kind of series: BLI. This is another data set of the same source.
Series [7] deals with the molecule itself. The series is described as follows: SEC-SAXS. A general note: Size exclusion chromatography separates by hydrodynamic size, large species first.
Series [8] deals with the molecule itself. The series is described as follows: SEC-MALS.
Series [9] has as its target B1. Kind of series: BLI.
For series [10], the target named is B1. The series is described as follows: BLI. This is another data set of the same source.
The target of series [11] is B1. Kind of series: BLI. This is another data set of the same source.

Like-named read-outs stand apart in the source and are kept apart here.

Consider BMP-2 mutant # 1 (49 F → A) (ligand), for which the Kd in [1] came to 66.1 nM; in series [2], 75.4 nM; in series [3] it was 77.8 nM.
Turning to BMP-2 mutant # 2 (66 L → R) (ligand), the figures for the Kd in series [1], in series [2] and in series [4] were 45.9 nM, 44.7 nM and 32.5 nM, respectively.
Take “BMP-2 mutant # 3 (49 F → A, 66 L → R) (ligand)”: the figures for the Kd in series [1], in series [2] and in series [3] were 30.4 nM, 95.9 nM and 175 nM, respectively.
As to “BMP-2 mutant # 4 (33 V → T, 34 A → S) (ligand)”, the Kd in [1] is 47.2 nM; in [2], 176 nM.
Turning to “BMP-2 mutant # 5 (98 V → T, 100 L → N) (ligand)”, the Kd in series [1] and in series [4] was 176 nM in each case. Besides, the koff in series [3] stood at 0.001 s⁻¹.
As to “BMP-2 mutant # 6 (90 L→ Q, 92 L → R) (ligand)”, the Kd in series [2] turned out to be 301 nM.
As for B1, in series [5], binding was put at a Kd of 9 nM and the koff is 0.0018 s⁻¹. Moreover, the affinity in series [6], expressed as Kd, was 5.6 nM.
Regarding B2, the “stoichiometry N” value in series [7] is 2.
Regarding B3, the “stoichiometry N” value in series [8] was determined as 2. Further, the equilibrium dissociation constant (Kd) in [9] worked out at 16.7 nM; in series [10], 5.2 nM. In addition, the off-rate constant (koff) in series [9] turned out to be 0.005 s⁻¹.
Molecule B4 displayed a Kd in series [11] of 8.5 nM.

A word on the Kd: it is a measure of binding affinity in units of concentration. High values mean weaker binding, low ones tighter binding. Usually koff stands for a measure of how fast the partners let go of each other. For orientation: stoichiometry N means a count of units in the complex or per binding partner.
